Measured values from article PMC9638019, “The archetypal gene transfer agent RcGTA is regulated via direct interaction with the enigmatic RNA polymerase omega subunit”.

How the values were obtained:
[1] = biological target: MBP-GafA-Cx^87–382 (R. capsulatus); assay: SEC; analytical gel filtration, Superdex 200 increase 10/200 GL, MBP binding buffer (200 mM NaCl, 20 mM Tris, 1 mM EDTA; pH 7.4); molecular weight estimated from a standard curve
[2] = biological target: MBP-GafA-C^221–382 (R. capsulatus); assay: as above
[3] = biological target: Maltose Binding Protein-GafA fusion protein (R. capsulatus); assay: as above
[4] = biological target: T1, MBP-GafA-C221-382 (UniProt D5AUH1 221-382); assay: EMSA; poly dI:dC; 25 mM HEPES pH 8.0, 50 mM K-glutamate, 50 mM MgSO4, 1 mM DTT, 0.1 mM EDTA, 0.05% Triton X-100, 4% glycerol, 1 ug poly dI:dC per 10 ul, 80 nM Cy5-dsDNA, 30 min room temperature; 7% acrylamide, 1x TBE; conditions: protein: recombinant; tags: N-terminal MBP; chain copies: 2; label: 5'-Cy5 on one strand; blunt
T1 sequence: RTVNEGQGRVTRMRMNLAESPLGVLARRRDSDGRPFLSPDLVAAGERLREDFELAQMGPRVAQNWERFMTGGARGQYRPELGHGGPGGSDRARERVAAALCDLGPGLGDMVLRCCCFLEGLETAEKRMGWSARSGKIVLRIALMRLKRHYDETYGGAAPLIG

[5] = biological target: T2, GafA-Nc1-86 (UniProt D5AUH1 1-86); assay: EMSA; non-specific: shift lost with 500-fold non-specific competitor; 25 mM HEPES pH 8.0, 50 mM K-glutamate, 50 mM MgSO4, 1 mM DTT, 0.1 mM EDTA, 0.05% Triton X-100, 4% glycerol, 1 ug poly dI:dC per 10 ul, 80 nM Cy5-dsDNA, 30 min room temperature; 7% acrylamide, 1x TBE; conditions: protein: recombinant; tags: none (MBP removed with 3C protease); label: 5'-Cy5 on one strand; blunt
T2 sequence: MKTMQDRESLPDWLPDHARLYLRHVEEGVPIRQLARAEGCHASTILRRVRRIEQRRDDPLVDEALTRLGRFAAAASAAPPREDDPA

[6] = biological target: T2, GafA-Nc1-86; assay: EMSA; specific: shift remains with 500-fold non-specific competitor; 25 mM HEPES pH 8.0, 50 mM K-glutamate, 50 mM MgSO4, 1 mM DTT, 0.1 mM EDTA, 0.05% Triton X-100, 4% glycerol, 1 ug poly dI:dC per 10 ul, 80 nM Cy5-dsDNA, 30 min room temperature; 7% acrylamide, 1x TBE; conditions: protein: recombinant; tags: none (MBP removed with 3C protease); label: 5'-Cy5 on one strand; blunt
[7] = biological target: T2, GafA-Nc1-86; assay: EMSA; non-specific; 25 mM HEPES pH 8.0, 50 mM K-glutamate, 50 mM MgSO4, 1 mM DTT, 0.1 mM EDTA, 0.05% Triton X-100, 4% glycerol, 1 ug poly dI:dC per 10 ul, 80 nM Cy5-dsDNA, 30 min room temperature; 7% acrylamide, 1x TBE; conditions: protein: recombinant; tags: none (MBP removed with 3C protease); label: 5'-Cy5 on one strand; blunt

MBP-GafA-Cx^87–382 (domain or fragment)
stoichiometry N [1]: 2

MBP-GafA-C^221–382 (domain or fragment)
stoichiometry N [2]: 2

Maltose Binding Protein-GafA fusion protein (natural protein)
stoichiometry N [3]: 2

B1: pGTA2 (dsDNA)
DNA 1: TTTGCGAACGCTTCAAGGTAGAGATAAGGCATGCTAGGAGAGGTGGGCAA
DNA 2: TTGCCCACCTCTCCTAGCATGCCTTATCTCTACCTTGAAGCGTTCGCAAA
binding result [4]: binds
binding result [5]: binds

B2: pGafA3 (dsDNA)
DNA 1: CGCTCAACCGAACGCTGCGTTTGGAAATCTTTAGAGTTTATAAAGAATTT
DNA 2: AAATTCTTTATAAACTCTAAAGATTTCCAAACGCAGCGTTCGGTTGAGCG
binding result [4]: binds

B3: pGTA1 (dsDNA)
DNA 1: TCCGGGGTTTTTTCTTTTCAGCGGGTGCAACCCTGAATATAGCACTTGAC
DNA 2: GTCAAGTGCTATATTCAGGGTTGCACCCGCTGAAAAGAAAAAACCCCGGA
binding result [6]: binds

B4: pGTA3 (dsDNA)
DNA 1: GCGCCGCGGGTGACCGTGTGCGCTTTTTTCATTTCGCTCGTGCGGACAGG
DNA 2: CCTGTCCGCACGAGCGAAATGAAAAAAGCGCACACGGTCACCCGCGGCGC
binding result [6]: binds

B5: pGTA4 (dsDNA)
DNA 1: TTCATTTCGCTCGTGCGGACAGGCATGAGAGGCGGGTCACGCAAGACATG
DNA 2: CATGTCTTGCGTGACCCGCCTCTCATGCCTGTCCGCACGAGCGAAATGAA
binding result [5]: binds

B6: pGafA1 (dsDNA)
DNA 1: TCGAGATCGCCCCATTTCTTAACCAAGGGGTAACCAAAGCAACCCACGGT
DNA 2: ACCGTGGGTTGCTTTGGTTACCCCTTGGTTAAGAAATGGGGCGATCTCGA
binding result [7]: binds

B7: pGafA2 (dsDNA)
DNA 1: TGCAGATGCCGTTTGCGCTATCTGACTGCCAGCCTGTCGATGGGAGACCGGAGATGAAGA
DNA 2: TCTTCATCTCCGGTCTCCCATCGACAGGCTGGCAGTCAGATAGCGCAAACGGCATCTGCA
binding result [7]: binds
